Target: human PD-1 protein (Acro biosystems) (human, UniProt Q15116 25-170)
Experiment: SPR

human PD-1 protein (Acro biosystems), sequence (Q15116 25-170): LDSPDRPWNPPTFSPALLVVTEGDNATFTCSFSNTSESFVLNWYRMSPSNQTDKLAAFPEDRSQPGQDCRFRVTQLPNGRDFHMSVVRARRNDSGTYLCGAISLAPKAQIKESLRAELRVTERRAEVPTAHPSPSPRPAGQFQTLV

B1: anti-PD-1 Nb C12-Fc (Fc fusion)
chain: QVQLQELGETRCRHGGSLRLSCKVSGYTQRSYCLGWLRQAPGNEREAVAVLQHSGNFRHYADSVQGRFVISQDYTDNTVYLAMNNLKSEDAAMYYCAAVGLRVSQFNYWGQGTQVTVSS
With B1 the koff was 0.00178 s⁻¹.
